Patent publication US20220133794A1 (Stanford University, published 2022)
Changes are numbered by the printed parent chain.

B1: mouse monoclonal anti-human CD93 antibody F11 (hybridoma clone F11) (antibody, V domains shown)
VH: EVQLQQSGPELVKPGASVKIPCKASGYTFTDYHMDWVKQSHGKSLEWIGDIDPYNGDTVFNQKFKGKATLTVDKSSSTAYMELRSLTSEDTAVYYCTRGGDYWGQGTTLTVSS
VL: DVVMTQTPLSLPVSLGDQASISCRSSQTLVHSNGNTYLHWYLQKPGQSPKLLIYKVSNRFSGVPDRFSGSGSGTDFTLKISRVEAEDLGVYFCSQSTHVPFTFGSGTKLEIK
notes: Mouse hybridoma antibody tested as supernatant; also called mouse F11; parental antibody
B2: humanized F11-G1 (Hu F11-G1) (antibody, V domains shown)
VH: QVQLVQSGAEVKKPGASVKVSCKASGYTFTDYHMDWVKQAPGQGLEWIGDIDPYNGDTVFNQKFKGKATMTRDTSISTAYMELSRLRSDDTAVYYCTRGGDYWGQGTLVTVSS
VL: B1 VL with V2I, P12S, S14T, L15P, D17Q, Q18P, S48P, K50Q, L88V, S105Q
notes: The light chain was detected with anti-human kappa; also called humanized mCD93 antibody (F11); humanized anti-CD93 antibody

Experiments:
[1] = target: T1, human CD93 (human, UniProt Q9NPY3 22-652); test: hybridoma supernatant screen by ELISA and flow cytometry
T1 construct: whole, on cells; Endogenous CD93 on AML cell lines
T1 sequence (looked up): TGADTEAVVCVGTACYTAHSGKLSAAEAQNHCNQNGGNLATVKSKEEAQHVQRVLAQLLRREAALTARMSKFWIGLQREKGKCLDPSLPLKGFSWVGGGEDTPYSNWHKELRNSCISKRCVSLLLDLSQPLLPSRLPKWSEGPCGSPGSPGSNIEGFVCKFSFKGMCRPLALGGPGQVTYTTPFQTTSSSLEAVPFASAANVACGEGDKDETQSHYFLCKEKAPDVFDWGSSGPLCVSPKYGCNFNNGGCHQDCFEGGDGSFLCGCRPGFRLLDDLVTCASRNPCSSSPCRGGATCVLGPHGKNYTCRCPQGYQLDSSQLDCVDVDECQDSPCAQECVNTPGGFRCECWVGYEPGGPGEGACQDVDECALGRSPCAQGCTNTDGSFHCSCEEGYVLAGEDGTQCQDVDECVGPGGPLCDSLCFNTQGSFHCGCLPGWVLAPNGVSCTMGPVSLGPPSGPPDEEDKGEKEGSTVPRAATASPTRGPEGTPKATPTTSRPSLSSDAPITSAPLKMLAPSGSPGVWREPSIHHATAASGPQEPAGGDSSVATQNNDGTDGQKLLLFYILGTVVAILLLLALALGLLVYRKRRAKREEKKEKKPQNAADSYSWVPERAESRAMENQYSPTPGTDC

[2] = target: T1, human CD93; test: flow cytometry on AML cell lines, biotinylated antibody and streptavidin APC
Description: FIG. 8. CD93-specific CAR T cells produce cytokines when incubated with CD93 positive AML cell lines. A. AML cell lines were first treated with Fc block, then were stained with biotinylated HuF11 antibody followed by streptavidin APC, or with streptavidin APC only as a control. CD93 was highly expressed on many AML cell lines including THP-1, Kasumi, MOLM-13, NOMO-1, and OCI-AML3, and was not expressed on HEL-2. B. 1×10⁵ AML cells were incubated with 1×10⁵ mock, F11 28ζ LH, F11 28ζ H-L, F11 BBζ L-H, or F11 BBζ H-L CAR T cells for 24 h. At 24 h, supernatant was harvested and ELISA was performed for IFNγ and IL-2. Results are representative of at least three independent experiments.

Binder	binding result [1]	binding result [2]
B1	binds	–
B2	–	binds
